Publication doi:10.1101/2023.12.14.571518 (bioRxiv, 2023)

B1: CDK5RAP2(44-93) (domain or fragment, human)
chain: SNIGSGGTPSTGSSLPNVSEETVSPTRARNMKDFENQITELKKENFNLKLRIYFLEERMQQEFH

Tests used:
cryo-EM structure = target: the molecule itself; assay: cryo-EM structure
MZT2:GST-GCP2-NHD = MZT2:GST-GCP2-NHD (human, UniProt Q6P582 1-158; Q9BSJ2 1-110); assay: pull-down
Sequence of MZT2:GST-GCP2-NHD (Q6P582 whole entry, chain 1 of 2): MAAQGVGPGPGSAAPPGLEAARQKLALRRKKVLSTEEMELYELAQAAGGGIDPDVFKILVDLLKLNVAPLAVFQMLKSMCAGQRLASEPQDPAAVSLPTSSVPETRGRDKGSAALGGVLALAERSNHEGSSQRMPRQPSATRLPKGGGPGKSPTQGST
Sequence of MZT2:GST-GCP2-NHD (Q9BSJ2 1-110, chain 2 of 2): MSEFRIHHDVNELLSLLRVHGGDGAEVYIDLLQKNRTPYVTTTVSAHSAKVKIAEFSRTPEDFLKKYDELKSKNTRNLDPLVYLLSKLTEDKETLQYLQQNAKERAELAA

Binder	binding result (cryo-EM structure)	Kd (MZT2:GST-GCP2-NHD)
TVSPTRARNMKDFENQITELKKENFNLKLRIYFLEERMQQEFHGPTEHIY (domain or fragment, human, UniProt Q96SN8 51-100, looked up) [CDK5RAP2(51-100)]	binds	
B1		≥ 10 µM
